Bridge positions count the residues as written; N and C are the ends. Square brackets hold non-standard residues; d marks the D form. Ends that are not written are not given here. Aib = CC(C)(N)C(=O)O
Target: human glucagon receptor (human, UniProt P47871 26-477)
Assay: cell-based or functional assay

Sequence of human glucagon receptor (P47871 26-477): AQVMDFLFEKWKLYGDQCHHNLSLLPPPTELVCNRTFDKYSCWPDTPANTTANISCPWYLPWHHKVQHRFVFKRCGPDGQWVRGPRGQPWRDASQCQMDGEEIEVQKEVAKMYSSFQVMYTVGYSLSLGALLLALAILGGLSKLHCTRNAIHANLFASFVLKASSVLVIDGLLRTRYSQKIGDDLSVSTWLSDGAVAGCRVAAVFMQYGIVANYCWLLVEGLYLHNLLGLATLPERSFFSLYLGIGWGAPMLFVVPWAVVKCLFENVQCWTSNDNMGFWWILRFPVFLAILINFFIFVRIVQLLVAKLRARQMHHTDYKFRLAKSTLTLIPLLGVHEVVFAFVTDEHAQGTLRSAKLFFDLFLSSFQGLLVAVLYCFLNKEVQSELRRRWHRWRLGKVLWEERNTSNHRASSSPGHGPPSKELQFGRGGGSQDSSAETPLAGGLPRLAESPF

Y[Aib]QGTFTSDYSKYLDSCDAQDFVVWLINT [glucagon derivative peptide of SEQ ID NO: 9] and Y[Aib]QGTFTSDYSKYLDSCDADDFVVWLINT [glucagon derivative peptide of SEQ ID NO: 10] cannot be ordered by “In vitro activity (relative activity compared with SEQ ID NO: 1, %); cAMP EC50 in CHO cells expressing human GCG receptor” value: under 0.1% for the first, under 0.1% for the second.

Compared with Y[Aib]QGTFTSDYSKYLDEKCAKEFVQWLMNT [glucagon derivative peptide of SEQ ID NO: 11], Y[Aib]QGTFTSDYSCYLDSRRAQDFVQWLMNT [glucagon derivative peptide of SEQ ID NO: 13] is higher in “In vitro activity (relative activity compared with SEQ ID NO: 1, %); cAMP EC50 in CHO cells expressing human GCG receptor” value: 4.6% for the first, 5.2% for the second.

Going from Y[Aib]QGTFTSDYSKYLDCKRAKEFVQWLMNT [glucagon derivative peptide of SEQ ID NO: 14] to Y[Aib]QGTFTSDYSKYLCEKRAQDFVVWLMNT [glucagon derivative peptide of SEQ ID NO: 15], the “In vitro activity (relative activity compared with SEQ ID NO: 1, %); cAMP EC50 in CHO cells expressing human GCG receptor” value falls from 18.1% to 1.1%.

Going from Y[Aib]QGTFTSDYSKYLDCRRAQVFVQWLMRT [glucagon derivative peptide of SEQ ID NO: 16] to Y[Aib]QGTFTSDYSKYLDCVRAQDFVQWLMRT [glucagon derivative peptide of SEQ ID NO: 17], the “In vitro activity (relative activity compared with SEQ ID NO: 1, %); cAMP EC50 in CHO cells expressing human GCG receptor” value rises from 4.2% to 23.2%.

First: Y[Aib]QGTFTSDYSKYLDSRRACDFRLWLMNT [glucagon derivative peptide of SEQ ID NO: 18]
Second: Y[Aib]QGTFTSDYSKYLCEKRAKEFVQWLMNT (lactam 16-20) [glucagon derivative peptide of SEQ ID NO: 19]
The “In vitro activity (relative activity compared with SEQ ID NO: 1, %); cAMP EC50 in CHO cells expressing human GCG receptor” value of the first is lower: under 0.1% for the first, 12.1% for the second.

First: Y[Aib]QGTFTSDYSKYLDECRAKEFVQWLMNT (lactam 16-20) [glucagon derivative peptide of SEQ ID NO: 20]
Second: Y[Aib]QGTFTSDYSKYLDEKCAKEFVQWLMNT (lactam 16-20) [glucagon derivative peptide of SEQ ID NO: 21]
The “In vitro activity (relative activity compared with SEQ ID NO: 1, %); cAMP EC50 in CHO cells expressing human GCG receptor” value of the first is higher: 300% for the first, 57.8% for the second.

First: Y[Aib]QGTFTSDYSKYLDEKRCKEFVQWLMNT (lactam 16-20) [glucagon derivative peptide of SEQ ID NO: 22]
Second: Y[Aib]QGTFTSDYSKYCDEKRAKEFVQWLMNT (lactam 16-20) [glucagon derivative peptide of SEQ ID NO: 23]
The “In vitro activity (relative activity compared with SEQ ID NO: 1, %); cAMP EC50 in CHO cells expressing human GCG receptor” value of the first is higher: 148% for the first, 76.8% for the second.

First: Y[Aib]QGTFTSDYSKCLDEKRAKEFVQWLMNT (lactam 16-20) [glucagon derivative peptide of SEQ ID NO: 24]
Second: Y[Aib]QGTFTSDYSKYLDEKRAKCFVQWLMNT (lactam 16-20) [glucagon derivative peptide of SEQ ID NO: 25]
The “In vitro activity (relative activity compared with SEQ ID NO: 1, %); cAMP EC50 in CHO cells expressing human GCG receptor” value of the first is higher: 58% for the first, 46.9% for the second.

Going from W[Aib]QGTFTSDYSKYLDECRAKDFVQWLMNT (lactam 16-20) [glucagon derivative peptide of SEQ ID NO: 26] to Y[Aib]QGTFVSDYSKYLDECRAKDFVQWLMNT (lactam 16-20) [glucagon derivative peptide of SEQ ID NO: 27], the “In vitro activity (relative activity compared with SEQ ID NO: 1, %); cAMP EC50 in CHO cells expressing human GCG receptor” value rises from 1% to 93.6%.

Compared with W[Aib]QGTFVSDYSKYLDECRAKDFVQWLMNT (lactam 16-20) [glucagon derivative peptide of SEQ ID NO: 28], HSQGTFTSDYSKYLDCDRAQDFVQWLMNT [glucagon derivative peptide of SEQ ID NO: 2] is higher in “In vitro activity (relative activity compared with SEQ ID NO: 1, %); cAMP EC50 in CHO cells expressing human GCG receptor” value: under 0.1% for the first, 0.6% for the second.

Compared with Y[Aib]QGTFTSDYSKCLDERRAKDFVQWLMNT (lactam 16-20) [glucagon derivative peptide of SEQ ID NO: 29], W[Aib]QGTFTSDYSKCLDERRAKDFVQWLMNT (lactam 16-20) [glucagon derivative peptide of SEQ ID NO: 30] is lower in “In vitro activity (relative activity compared with SEQ ID NO: 1, %); cAMP EC50 in CHO cells expressing human GCG receptor” value: 61.3% for the first, 0.3% for the second.

First: Y[Aib]QGTFTSDYSKYLDCKRAKEFVQWLMNT (lactam 17-21) [glucagon derivative peptide of SEQ ID NO: 31]
Second: SQGTFTSDYSKYLDECRAKEFVQWLMNT (lactam 15-19) [glucagon derivative peptide of SEQ ID NO: 32]
The “In vitro activity (relative activity compared with SEQ ID NO: 1, %); cAMP EC50 in CHO cells expressing human GCG receptor” value of the first is higher: 6.3% for the first, 0.7% for the second.

First: YXQGTFTSDYSKYLDSRRAQDFVQWLMNT (aminoisobutyric acid (Aib) at position 2 (printed X)) [glucagon derivative peptide of SEQ ID NO: 33]
Second: W[Aib]QGTFTSDYSKYCDERRAKEFVQWLMNT (lactam 16-20) [glucagon derivative peptide of SEQ ID NO: 34]
The “In vitro activity (relative activity compared with SEQ ID NO: 1, %); cAMP EC50 in CHO cells expressing human GCG receptor” value of the first is higher: 108% for the first, 0.2% for the second.

Going from Y[Aib]QGTFTSDYSKYCDERRAKEFVQWLMNT (lactam 16-20) [glucagon derivative peptide of SEQ ID NO: 35] to Y[Aib]QGTFTSDCSKYLDERRAKEFVQWLMNT (lactam 16-20) [glucagon derivative peptide of SEQ ID NO: 36], the “In vitro activity (relative activity compared with SEQ ID NO: 1, %); cAMP EC50 in CHO cells expressing human GCG receptor” value falls from 17.7% to 9.9%.

Going from Y[Aib]QGTFTSDYSKYLDERRAKEFVQWLMNTC (lactam 16-20) [glucagon derivative peptide of SEQ ID NO: 37] to Y[Aib]QGTFCSDYSKYLDERRAKEFVQWLMNT (lactam 16-20) [glucagon derivative peptide of SEQ ID NO: 38], the “In vitro activity (relative activity compared with SEQ ID NO: 1, %); cAMP EC50 in CHO cells expressing human GCG receptor” value falls from 226% to 167%.

Compared with HSQGTFTSDYSKYLDCERAQDFVQWLMNT [glucagon derivative peptide of SEQ ID NO: 3], Y[Aib]QGTFVSDCSKYLDERRAKDFVQWLMNT (lactam 16-20) [glucagon derivative peptide of SEQ ID NO: 39] is lower in “In vitro activity (relative activity compared with SEQ ID NO: 1, %); cAMP EC50 in CHO cells expressing human GCG receptor” value: 6.1% for the first, 3.7% for the second.

Going from Y[Aib]QGTFVSDYSKYLDERRAKDFVQWLMNTC (lactam 16-20) [glucagon derivative peptide of SEQ ID NO: 40] to Y[Aib]QGTFCSDYSKYLDERRAKDFVQWLMNT (lactam 16-20) [glucagon derivative peptide of SEQ ID NO: 41], the “In vitro activity (relative activity compared with SEQ ID NO: 1, %); cAMP EC50 in CHO cells expressing human GCG receptor” value rises from 40.8% to 45.2%.

Compared with Y[Aib]QGTFCSDYSKYLDSRRAQDFVQWLMNT [glucagon derivative peptide of SEQ ID NO: 42], Y[Aib]QGTFTSDCSKYLDSRRAQDFVQWLMNT [glucagon derivative peptide of SEQ ID NO: 43] is lower in “In vitro activity (relative activity compared with SEQ ID NO: 1, %); cAMP EC50 in CHO cells expressing human GCG receptor” value: 37.9% for the first, 1.6% for the second.

Going from YXQGTFTSDYSKYLDSRRAQDFVQWLMNTC (aminoisobutyric acid (Aib) at position 2 (printed X)) [glucagon derivative peptide of SEQ ID NO: 44] to Y[Aib]QGTFTSDYSCYLDEKRAKEFVQWLMNT [glucagon derivative peptide of SEQ ID NO: 45], the “In vitro activity (relative activity compared with SEQ ID NO: 1, %); cAMP EC50 in CHO cells expressing human GCG receptor” value falls from 75.4% to 5.2%.

First: HSQGTFTSDYSKYLDSCDAQDFVQWLMNT [glucagon derivative peptide of SEQ ID NO: 4]
Second: HSQGTFTSDYSKYLDSCEAQDFVQWLMNT [glucagon derivative peptide of SEQ ID NO: 5]
The “In vitro activity (relative activity compared with SEQ ID NO: 1, %); cAMP EC50 in CHO cells expressing human GCG receptor” value of the first is lower: under 0.1% for the first, 0.3% for the second.

HSQGTFTSDYSKYLDSCEADDFVQWLMNT [glucagon derivative peptide of SEQ ID NO: 6] and YSQGTFTSDYSKYLDSCEADDFVQWLMNT [glucagon derivative peptide of SEQ ID NO: 7] cannot be ordered by “In vitro activity (relative activity compared with SEQ ID NO: 1, %); cAMP EC50 in CHO cells expressing human GCG receptor” value: under 0.1% for the first, under 0.1% for the second.

In the case of Y[Aib]QGTFTSDYSKYLDSCDAQDFVQWLINT [glucagon derivative peptide of SEQ ID NO: 8], the “In vitro activity (relative activity compared with SEQ ID NO: 1, %); cAMP EC50 in CHO cells expressing human GCG receptor” value is reported as under 0.1%.

Reference: patent publication US20250121086A1, “LIVER-TARGETED SUBSTANCE AND USE THEREOF” (HANMI PHARM. CO., LTD., priority 2021, published 2025)
